Source: paper PMC3318979

Tests used:
[1] = molecular target: mitochondrial respiratory chain complex I (human) (UniProt Q16795); test: native gel or EMSA
[2] = molecular target: mitochondrial respiratory chain complex III dimer (human) (UniProt P22695); test: native gel or EMSA
UniProt P22695, sequence (P22695 whole entry, looked up, one chain of several): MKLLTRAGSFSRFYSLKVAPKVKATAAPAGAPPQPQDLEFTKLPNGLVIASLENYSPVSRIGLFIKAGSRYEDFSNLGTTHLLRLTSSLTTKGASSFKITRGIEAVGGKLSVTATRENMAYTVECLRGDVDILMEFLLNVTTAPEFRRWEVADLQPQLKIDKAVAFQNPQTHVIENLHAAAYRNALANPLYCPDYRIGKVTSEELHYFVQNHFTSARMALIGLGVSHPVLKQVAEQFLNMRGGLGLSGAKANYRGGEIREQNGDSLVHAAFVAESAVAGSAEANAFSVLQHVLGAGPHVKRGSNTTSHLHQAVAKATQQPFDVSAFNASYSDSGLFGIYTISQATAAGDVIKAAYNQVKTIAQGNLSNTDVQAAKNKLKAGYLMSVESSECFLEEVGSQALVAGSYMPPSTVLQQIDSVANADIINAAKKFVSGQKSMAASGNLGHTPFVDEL

UniProt Q16795, sequence (Q16795 whole entry, looked up, one chain of several): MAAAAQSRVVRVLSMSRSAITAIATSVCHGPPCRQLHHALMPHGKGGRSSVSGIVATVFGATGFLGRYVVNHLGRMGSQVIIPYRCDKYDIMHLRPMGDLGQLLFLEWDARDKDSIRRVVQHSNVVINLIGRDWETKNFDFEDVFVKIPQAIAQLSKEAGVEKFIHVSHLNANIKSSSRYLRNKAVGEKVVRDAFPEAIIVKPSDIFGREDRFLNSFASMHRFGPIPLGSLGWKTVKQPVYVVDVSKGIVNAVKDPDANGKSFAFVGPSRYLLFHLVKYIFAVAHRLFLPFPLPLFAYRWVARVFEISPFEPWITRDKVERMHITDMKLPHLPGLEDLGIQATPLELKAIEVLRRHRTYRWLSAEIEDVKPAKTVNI

Substance | percent of the subunits' signal in I+III2+IVn supercomplexes [1] | percent of the subunits' signal in supercomplex III2+IV [2]
mitochondrial respiratory chain complex III dimer (from UniProt P22695 15-453; P47985 79-274) | 50% | 
mitochondrial respiratory chain complex IV (from UniProt P00395 1-513; P00403 1-227; P13073 23-169; P20674 42-150; P09669 1-75) |  | 1 to 3%
